Data on three molecules can be found in patent publication US20240043547A1.

One assay has as its target human IL-31 (human) (UniProt Q6EBC2). The assay is described as follows: cell-based or functional assay.
The target in assay [1] is cynomolgus IL-31-His (cynomolgus monkey (Macaca fascicularis)). As to the kind of experiment: SPR (Biacore T200), cynomolgus IL-31-His captured via anti-His antibody, scFv as analyte. In general terms: SPR reads the build-up and loss of mass on a sensor chip optically.

Chain of human IL-31 (human) (Q6EBC2 24-164 limits assumed): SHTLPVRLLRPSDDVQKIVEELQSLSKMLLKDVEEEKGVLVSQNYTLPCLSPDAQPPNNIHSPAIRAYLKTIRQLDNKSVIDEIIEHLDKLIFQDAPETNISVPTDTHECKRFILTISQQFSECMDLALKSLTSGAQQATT

B1: PRO1901 (scFv)
scFv: AFQLTQSPSSLSASVGDRVTITCQASQSIDSWLAWYQQKPGKPPKLLIYQASKLASGVPSRFSGSGSGTDYTLTISSLQPEDFATYYCQTYYGGGHIGWGFGTGTKVTVLGGGGGSGGGGSGGGGSGGGGSQSQLVESGGGSVQPGGSLRLSCAASGFSFSANYWICWVRQAPGKGLEWIVCIYIGSRADTYYAPWAKGRFTISKDNSKNTVYLQMNSLRAEDTATYFCARFSSGIYDLDRFFLWGQGTQVTVSS
In the assay with human IL-31 (human), B1 came in with an IC50 [ng/ml], neutralization of hIL-31-induced signaling in IL-31RA/OSMR dimerization assay of 8.07 ng/mL and a rel. IC50 (IC50, BMS-981164/IC50, test sample), IL-31RA/OSMR dimerization assay of 0.78. In assay [1], this molecule had a Kd of 1.14 nM, a koff of 0.000569 s⁻¹ and an on-rate constant (kon) of 501000 M⁻¹ s⁻¹.

B2: PRO1902 (scFv)
scFv: AFQLTQSPSSLSASVGDRVTITCQASQSIDSWLAWYQQKPGKPPKLLIYQASKLASGVPSRFSGSGSGTDYTLTISSLQPEDFATYYCQTYYGGGHIGWGFGTGTKVTVLGGGGGSGGGGSGGGGSGGGGSQSQLVESGGGLVQPGGSLRLSCAASGFSFSANYWICWVRQAPGKGLEWIVCISIGSRADTYYAPWAKGRFTISKDNSKNTVYLQMNSLRAEDTAVYFCARFSSGIYDLDRFFLWGQGTLVTVSS
In the assay with human IL-31 (human), B2 gave an IC50 [ng/ml], neutralization of hIL-31-induced signaling in IL-31RA/OSMR dimerization assay of 371 ng/mL and a rel. IC50 (IC50, BMS-981164/IC50, test sample), IL-31RA/OSMR dimerization assay of 0.03. For the same molecule, in assay [1], the Kd worked out at 3.38 nM, the koff is 0.00247 s⁻¹ and the kon was 731000 M⁻¹ s⁻¹.

B3: PRO1903 (scFv)
scFv: AFQLTQSPSSLSASVGDRVTITCQASQSIESWLAWYQQKPGKPPKLLIYQASKLASGVPSRFSGSGSGTDYTLTISSLQPEDFATYYCQTYYGGGHIGWGFGTGTKVTVLGGGGGSGGGGSGGGGSGGGGSQSQLVESGGGLVQPGGSLRLSCAASGFSFSANYWICWVRQAPGKGLEWIVCIYIGSRADTYYAPWAKGRFTISKDNSKNTVYLQMNSLRAEDTAVYFCARFSSGIYDLDRFFLWGQGTLVTVSS
In the assay with human IL-31 (human), B3 gave an IC50 [ng/ml], neutralization of hIL-31-induced signaling in IL-31RA/OSMR dimerization assay of 7.98 ng/mL and a rel. IC50 (IC50, BMS-981164/IC50, test sample), IL-31RA/OSMR dimerization assay of 1.49. For the same molecule, in assay [1], the Kd came out at 1.39 nM, the koff stood at 0.000605 s⁻¹ and the kon turned out to be 434000 M⁻¹ s⁻¹.

Broadly, the Kd is the concentration at which binding is half-saturated. Usually koff stands for the rate constant with which the complex falls apart. In general, kon refers to the rate constant with which the complex forms.
